Measurements from patent US20140044735A1 (ISNERM INSTITUT NATIONAL DE LA SANTE ET DE LA RECHERCHE …, published 2014).
“And” between values parts separate entries of the source, which are not always exact repeats. Equal values may be shown once.

Key:
[1] = biological target: CD47 on mouse erythrocytes (wild type and SAD transgenic mice) (mouse) (UniProt Q61735); assay: cell-based or functional assay
[2] = biological target: CD47 on mouse erythrocytes (wild type and SAD transgenic mice) (mouse) (UniProt Q61735); assay: flow cytometry of fresh mouse erythrocytes stained with the FITC-coupled antibody
[3] = biological target: T1, CD47 on mouse erythrocytes (wild type and SAD transgenic mice) (mouse, UniProt Q61735 19-303); assay: cell-based or functional assay
T1 sequence (looked up): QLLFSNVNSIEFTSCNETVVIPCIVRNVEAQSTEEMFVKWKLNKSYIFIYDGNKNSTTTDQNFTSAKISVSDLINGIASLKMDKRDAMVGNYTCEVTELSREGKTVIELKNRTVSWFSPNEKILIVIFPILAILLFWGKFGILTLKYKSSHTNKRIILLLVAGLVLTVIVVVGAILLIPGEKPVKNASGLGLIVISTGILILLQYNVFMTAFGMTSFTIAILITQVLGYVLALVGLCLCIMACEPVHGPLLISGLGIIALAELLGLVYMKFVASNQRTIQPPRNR

Human recombinant TSP1 (thrombospondin-1) (from UniProt P07996 19-1170) (ligand)
echinocytes among SAD mouse erythrocytes under shear [1]: 50% | proportion of echinocytes among wild type mouse erythrocytes under shear [1]: > 10 fold and 30%

mouse-specific fluoroisothiocyanate (FITC)-coupled anti-CD47 monoclonal antibody (clone mIAP301; BD Biosciences)
CD47 expression by FACS (percent) [2]: 85%

RFYVVMWK [4N1-1 synthetic peptide (RFYVVMWK), TSP1 carboxyterminal peptide]
MP shedding by SAD mouse erythrocytes [3]: 40 fold | MP shedding by wild type mouse erythrocytes [3]: 16 fold | echinocytosis of wild type mouse erythrocytes [3]: 2 fold
